According to US20030068675, “Position dependent recognition of GNN nucleotide triplets by zinc fingers” (published 2003):
Substitutions are numbered along the chain they refer to.

What was measured:
Assay in all cases: EMSA
Settings in all cases: tags: MBP fusion
ZFP SBS#1017 = target: T1, ZFP SBS#1017 (synthetic)
T1 chain: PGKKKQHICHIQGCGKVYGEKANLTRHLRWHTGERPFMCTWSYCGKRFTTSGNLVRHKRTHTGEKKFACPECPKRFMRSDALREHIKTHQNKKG
In short: (§1)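 Purified ZFP was titrated against labeled double-stranded target (1 nM or lower, at least 10-fold below expected Kd) carrying the natural binding site with flanks. Binding buffer was 10 mM Tris pH 7.5, 100 mM KCl, 1 mM MgCl2, 0.1 mM ZnCl2, 5 mM DTT, 10% glycerol, 0.02% BSA, with equilibration for at least 45 min. Bound and free target were separated on a 10% polyacrylamide gel.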

ZFP SBS#258 = ZFP SBS#258 (synthetic)
Sequence of ZFP SBS#258 (synthetic) (chain, as listed by the source): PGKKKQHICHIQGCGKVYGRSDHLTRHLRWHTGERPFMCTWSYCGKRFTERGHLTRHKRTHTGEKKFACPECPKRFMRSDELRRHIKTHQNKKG
In short: as §1

ZFP SBS#1011 = target: T2, ZFP SBS#1011 (synthetic)
T2 chain: T1 chain with E20R, K21S, N23D, T50R, G52D, N53S, V55A, A81S, R83T, E84K
In short: as §1

ZFP SBS#996 = target: T3, ZFP SBS#996 (synthetic)
T3 chain: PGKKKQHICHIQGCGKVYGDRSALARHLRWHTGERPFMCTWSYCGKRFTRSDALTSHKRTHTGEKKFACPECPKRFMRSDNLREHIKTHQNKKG
In short: as §1

ZFP SBS#1000 = target: T4, ZFP SBS#1000 (synthetic)
T4 chain: T3 chain with S56R
In short: as §1

ZFP SBS#1016 = target: T5, ZFP SBS#1016 (synthetic)
T5 chain: T3 chain with A53S, S56K
In short: as §1

ZFP SBS#1019 = ZFP SBS#1019 (synthetic)
Sequence of ZFP SBS#1019 (synthetic) (chain, as listed by the source): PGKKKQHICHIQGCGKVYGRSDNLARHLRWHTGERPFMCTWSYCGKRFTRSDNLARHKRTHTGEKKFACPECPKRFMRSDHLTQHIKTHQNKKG
In short: as §1

ZFP SBS#450 = target: T6, ZFP SBS#450 (synthetic)
T6 chain: T3 chain with D20R, R21S, S22D, A23T, S51G, R78D, S79R, D80S, R83T, E84R
In short: as §1

ZFP SBS#1034 = target: T7, ZFP SBS#1034 (synthetic)
T7 chain: T3 chain with D20R, R21S, S22D, R50D, S51R, D52S, S56K, N81A, R83A, E84R
In short: as §1

ZFP SBS#1035 = target: T8, ZFP SBS#1035 (synthetic)
T8 chain: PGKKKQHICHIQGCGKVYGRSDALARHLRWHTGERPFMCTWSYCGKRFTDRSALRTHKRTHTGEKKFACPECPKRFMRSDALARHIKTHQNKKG
In short: as §1

ZFP SBS#1033 = target: T9, ZFP SBS#1033 (synthetic)
T9 chain: T8 chain with R55T
In short: as §1

ZFP SBS#1022 = target: T10, ZFP SBS#1022 (synthetic)
T10 chain: T8 chain with D50R, R51S, S52D, A53N, R55A, T56R, A81N
In short: as §1

ZFP SBS#1025 = ZFP SBS#1025 (synthetic)
Sequence of ZFP SBS#1025 (synthetic) (chain, as listed by the source): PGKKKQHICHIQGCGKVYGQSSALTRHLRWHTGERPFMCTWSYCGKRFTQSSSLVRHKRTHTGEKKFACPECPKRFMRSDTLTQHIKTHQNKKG
In short: as §1

ZFP SBS#1018 = ZFP SBS#1018 (synthetic)
Sequence of ZFP SBS#1018 (synthetic) (chain, as listed by the source): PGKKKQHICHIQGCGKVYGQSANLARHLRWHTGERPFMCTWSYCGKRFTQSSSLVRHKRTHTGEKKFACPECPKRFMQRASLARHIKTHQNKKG
In short: as §1

ZFP SBS#964 = ZFP SBS#964 (synthetic)
Sequence of ZFP SBS#964 (synthetic) (chain, as listed by the source): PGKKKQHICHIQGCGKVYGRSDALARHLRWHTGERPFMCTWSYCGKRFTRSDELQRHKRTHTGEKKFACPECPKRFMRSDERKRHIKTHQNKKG
In short: as §1

ZFP SBS#1027 = target: T11, ZFP SBS#1027 (synthetic, UniProt P08047)
T11 chain: T8 chain with D50R, R51S, S52D, A53E, R55Q, T56R, A81E, A83Q
In short: as §1

ZFP SBS#1015 = ZFP SBS#1015 (synthetic)
Sequence of ZFP SBS#1015 (synthetic) (chain, as listed by the source): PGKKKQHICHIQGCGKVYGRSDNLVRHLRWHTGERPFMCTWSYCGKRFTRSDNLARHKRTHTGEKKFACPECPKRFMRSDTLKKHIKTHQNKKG
In short: as §1

ZFP SBS#1002 = target: T12, ZFP SBS#1002 (synthetic)
T12 chain: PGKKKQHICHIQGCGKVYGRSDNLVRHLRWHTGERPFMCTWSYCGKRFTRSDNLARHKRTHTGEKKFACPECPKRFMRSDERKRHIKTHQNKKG
In short: as §1

ZFP SBS#1013 = ZFP SBS#1013 (synthetic)
In short: as §1

ZFP SBS#1010 = ZFP SBS#1010 (synthetic)
Sequence of ZFP SBS#1010 (synthetic) (chain, as listed by the source): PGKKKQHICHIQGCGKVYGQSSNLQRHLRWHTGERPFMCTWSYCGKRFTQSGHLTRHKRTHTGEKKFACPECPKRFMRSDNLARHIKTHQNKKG
In short: as §1

ZFP SBS#1007 = ZFP SBS#1007 (synthetic)
Sequence of ZFP SBS#1007 (synthetic) (chain, as listed by the source): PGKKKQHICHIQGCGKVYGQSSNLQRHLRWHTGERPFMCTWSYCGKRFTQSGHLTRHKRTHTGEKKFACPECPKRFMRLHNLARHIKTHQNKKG
In short: as §1

ZFP SBS#1024 = target: T13, ZFP SBS#1024 (synthetic, UniProt P08047)
T13 chain: T12 chain with R20Q, D22A, V25A, E81H, R82L, K83S
In short: as §1

ZFP SBS#995 = ZFP SBS#995 (synthetic, UniProt P08047)
Sequence of ZFP SBS#995 (P08047 other isoform, or with tags, fused parts or gaps): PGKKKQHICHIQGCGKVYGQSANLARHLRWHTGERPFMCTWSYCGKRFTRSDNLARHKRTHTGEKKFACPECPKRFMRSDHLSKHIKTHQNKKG
In short: as §1

ZFP SBS#1026 = target: T14, ZFP SBS#1026 (synthetic)
T14 chain: T8 chain with R20M, D22H, A23H, A25K, R26E, D50Q, R51S, A53D, R55S, T56R
In short: as §1

ZFP SBS#1037 = ZFP SBS#1037 (synthetic)
Sequence of ZFP SBS#1037 (synthetic) (chain, as listed by the source): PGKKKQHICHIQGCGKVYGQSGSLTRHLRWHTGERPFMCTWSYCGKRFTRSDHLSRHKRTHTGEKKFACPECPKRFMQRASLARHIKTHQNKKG
In short: as §1

ZFP SBS#1038 = ZFP SBS#1038 (synthetic)
Sequence of ZFP SBS#1038 (synthetic) (chain, as listed by the source): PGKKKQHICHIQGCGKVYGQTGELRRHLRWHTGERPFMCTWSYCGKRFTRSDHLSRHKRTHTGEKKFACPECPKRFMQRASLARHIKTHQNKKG
In short: as §1

ZFP SBS#1008 = target: T15, ZFP SBS#1008 (synthetic)
T15 chain: T12 chain with V25S, N53S, A55T, R56Q, S79L, D80H, E81N, R82L, K83A
In short: as §1

ZFP SBS#1009 = target: T16, ZFP SBS#1009 (synthetic)
T16 chain: T12 chain with V25S, N53S, A55T, R56Q, E81N, R82L, K83S
In short: as §1

ZFP SBS#988 = ZFP SBS#988 (synthetic)
Sequence of ZFP SBS#988 (synthetic) (chain, as listed by the source): as the sequence (P08047 other isoform, or with tags, fused parts or gaps) above, with Q20T, A22G, A25V, R50Q, D52S, N53D, A55Q, R78M, D80H, K84R counted along it
In short: as §1

ZFP SBS#986 = ZFP SBS#986 (synthetic)
Sequence of ZFP SBS#986 (synthetic) (chain, as listed by the source): as the sequence (P08047 other isoform, or with tags, fused parts or gaps) above, with A22S, A25Q, R50Q, D52S, N53D, A55Q, R78M, D80H, K84R counted along it
In short: as §1

ZFP SBS#987 = ZFP SBS#987 (synthetic)
In short: as §1

ZFP SBS#1032 = ZFP SBS#1032 (synthetic)
Sequence of ZFP SBS#1032 (synthetic) (chain, as listed by the source): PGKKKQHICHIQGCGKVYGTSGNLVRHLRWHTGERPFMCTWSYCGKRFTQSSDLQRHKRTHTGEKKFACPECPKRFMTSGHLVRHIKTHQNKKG
In short: as §1

ZFP SBS#1014 = ZFP SBS#1014 (synthetic)
In short: as §1

ZFP SBS#1012 = ZFP SBS#1012 (synthetic)
Sequence of ZFP SBS#1012 (synthetic) (chain, as listed by the source): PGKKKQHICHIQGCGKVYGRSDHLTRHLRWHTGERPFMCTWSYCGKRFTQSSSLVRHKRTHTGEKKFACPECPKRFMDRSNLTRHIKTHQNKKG
In short: as §1

B1: CTGGATGAC (dsDNA)
DNA 1: CTGGATGAC
DNA 2: GTCATCCAG
ZFP SBS#1017
  Kd: 0.233 nM

B2: GCGGGCGGG (dsDNA)
DNA 1: GCGGGCGGG
DNA 2: CCCGCCCGC
ZFP SBS#258
  Kd: 15 nM

B3: TTGGTGGCG (dsDNA)
DNA 1: TTGGTGGCG
DNA 2: CGCCACCAA
ZFP SBS#1011
  Kd: 0.03 nM

B4: CAGTTGGTC (dsDNA)
DNA 1: CAGTTGGTC
DNA 2: GACCAACTG
ZFP SBS#996
  Kd: 9.6 nM
ZFP SBS#1000
  Kd: 11.2 nM
ZFP SBS#1016
  Kd: 0.09 nM

B5: AGGGAGGAG (dsDNA)
DNA 1: AGGGAGGAG
DNA 2: CTCCTCCCT
ZFP SBS#1019
  Kd: 0.022 nM

B6: GACTTGGTGC (dsDNA)
DNA 1: GACTTGGTGC
DNA 2: GCACCAAGTC
ZFP SBS#450
  Kd: 130 nM

B7: GTGTTCGTG (dsDNA)
DNA 1: GTGTTCGTG
DNA 2: CACGAACAC
ZFP SBS#1034
  Kd: 14.6 nM
ZFP SBS#1035
  Kd: 56 nM
ZFP SBS#1033
  Kd: 685 nM

B8: GAGGAGGTG (dsDNA)
DNA 1: GAGGAGGTG
DNA 2: CACCTCCTC
ZFP SBS#1022
  Kd: 0.01 nM
ZFP SBS#1025
  Kd: 0.115 nM

B9: GTAGTAGAA (dsDNA)
DNA 1: GTAGTAGAA
DNA 2: TTCTACTAC
ZFP SBS#1018
  Kd: 7.2 nM

B10: GCGGCGGTG (dsDNA)
DNA 1: GCGGCGGTG
DNA 2: CACCGCCGC
ZFP SBS#964
  Kd: 0.041 nM
ZFP SBS#1027
  Kd: 0.054 nM

B11: GCGGAGGAG (dsDNA)
DNA 1: GCGGAGGAG
DNA 2: CTCCTCCGC
ZFP SBS#1015
  Kd: 0.008 nM
ZFP SBS#1002
  Kd: 0.028 nM

B12: GAGAGAGAT (dsDNA)
DNA 1: GAGAGAGAT
DNA 2: ATCTCTCTC
ZFP SBS#1013
  Kd: 0.15 nM
ZFP SBS#1010
  Kd: 8.2 nM
ZFP SBS#1007
  Kd: 167 nM

B13: GGGGAGGAA (dsDNA)
DNA 1: GGGGAGGAA
DNA 2: TTCCTCCCC
ZFP SBS#1024
  Kd: 0.08 nM
ZFP SBS#995
  Kd: 0.08 nM

B14: GTGGCTTGT (dsDNA)
DNA 1: GTGGCTTGT
DNA 2: ACAAGCCAC
ZFP SBS#1026
  Kd: 0.076 nM

B15: GTAGGGGCA (dsDNA)
DNA 1: GTAGGGGCA
DNA 2: TGCCCCTAC
ZFP SBS#1037
  Kd: 0.05 nM
ZFP SBS#1038
  Kd: 0.152 nM

B16: GAGATGGAG (dsDNA)
DNA 1: GAGATGGAG
DNA 2: CTCCATCTC
ZFP SBS#1008
  Kd: 0.4 nM
ZFP SBS#1009
  Kd: 1.9 nM

B17: GGTGCTGAT (dsDNA)
DNA 1: GGTGCTGAT
DNA 2: ATCAGCACC
ZFP SBS#988
  Kd: 0.15 nM
ZFP SBS#986
  Kd: 1.6 nM
ZFP SBS#987
  Kd: 33.5 nM
ZFP SBS#1032
  Kd: 0.52 nM

B18: GACGTAGGG (dsDNA)
DNA 1: GACGTAGGG
DNA 2: CCCTACGTC
ZFP SBS#1014
  Kd: 0.01 nM
ZFP SBS#1012
  Kd: 0.032 nM
